{"source": "patent US20050220810A1", "about": "“Anti-aging preparation” (Shiseido Company, Ltd., priority 2002, published 2005)", "origin": "cited, not measured here", "molecules": {"B1": {"name": "TPA: tissue plasminogen activator, a positive control of the TSP-1 inducing substance (protein, UniProt P00750 36-562, looked up)", "Tissue-type plasminogen …": "SYQVICRDEKTQMIYQQHQSWLRPVLRSNRVEYCWCNSGRAQCHSVPVKSCSEPRCFNGGTCQQALYFSDFVCQCPEGFAGKCCEIDTRATCYEDQGISYRGTWSTAESGAECTNWNSSALAQKPYSGRRPDAIRLGLGNHNYCRNPDRDSKPWCYVFKAGKYSSEFCSTPACSEGNSDCYFGNGSAYRGTHSLTESGASCLPWNSMILIGKVYTAQNPSAQALGLGKHNYCRNPDGDAKPWCHVLKNRRLTWEYCDVPSCSTCGLRQYSQPQFRIKGGLFADIASHPWQAAIFAKHRRSPGERFLCGGILISSCWILSAAHCFQERFPPHHLTVILGRTYRVVPGEEEQKFEVEKYIVHKEFDDDTYDNDIALLQLKSDSSRCAQESSVVRTVCLPPADLQLPDWTECELSGYGKHEALSPFYSERLKEAHVRLYPSSRCTSQHLLNRTVTDNMLCAGDTRSGGPQANLHDACQGDSGGPLVCLNDGRMTLVGIISWGLGCGQKDVPGVYTKVTNYLDWIRDNMRP"}}, "test_system": "vascular endothelial cell HMVEC", "conditions": "general statement on positive controls of TSP-1 induction; no test described"}
{"molecule": "B1", "values": [{"measurement": "induction of cell death in vascular endothelial cells", "value": "does not induce cell death"}]}
